Patent US20240358731A1, “SUMO PATHWAY AS AN OXYGEN SENSOR RELEVANT TO THE PATHOPHYSIOLOGY OF PULMONARY ARTERY HYPERTENSION AND CARDIAC ARRHYTHMIA” (Northeastern University, priority 2023, published 2024)

T1: Kir2.1-mediated IK1 current (Rattus norvegicus, UniProt Q64273)
T1 construct: endogenous in cells; host or cells: rat ventricular cardiomyocytes (RVCMs)
T1 sequence (Q64273 1-427): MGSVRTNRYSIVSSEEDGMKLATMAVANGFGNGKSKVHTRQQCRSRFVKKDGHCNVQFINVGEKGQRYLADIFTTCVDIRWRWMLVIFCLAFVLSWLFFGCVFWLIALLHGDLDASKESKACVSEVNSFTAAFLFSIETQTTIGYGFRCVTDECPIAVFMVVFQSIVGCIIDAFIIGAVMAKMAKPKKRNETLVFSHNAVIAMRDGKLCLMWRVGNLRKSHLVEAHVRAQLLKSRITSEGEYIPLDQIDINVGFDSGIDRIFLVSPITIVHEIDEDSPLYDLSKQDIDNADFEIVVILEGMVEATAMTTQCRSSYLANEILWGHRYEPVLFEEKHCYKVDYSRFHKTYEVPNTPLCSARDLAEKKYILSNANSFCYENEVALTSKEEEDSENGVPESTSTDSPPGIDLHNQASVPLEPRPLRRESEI


Molecular target: T1, Kir2.1-mediated IK1 current
Assay: Whole-cell patch-clamp of IK1 in rat ventricular cardiomyocytes under acute hypoxia
Assay type: cell-based
Settings: for effect on hypoxic inhibition of IK1: ambient O2 to 2% O2, agent in pipette (SENP1 2 μM, SUMO1 1 μM, diC8-PIP2) or pretreatment (TAK981)
Experimental: IK1 in rat ventricular cardiomyocytes studied by whole-cell patch-clamp. Hypoxia was a drop in O2 from ambient levels to 2%, measured at the cell. The time-course of hypoxic-inhibition was studied by recording the magnitude of IK1 every second. Cells were studied with the following pipette solutions: control, SUMO1 (1 μM) or SENP1 (2 μM). IK1 was blocked by the addition of 3 mM Ba^2+. […] Left, representative current sweeps; right, a representative time course showing the kinetics of hypoxic inhibition in cardiomyocytes studied with control pipette solution. The inhibition is precluded by including SENP1 (2 μM, magenta) in the recording pipette. The reverse ramp recording protocol is inset. […] SENP1 augments IK1 and protects the current from hypoxia. Data are from 8-10 RVCMs per group, **** P<0.0001, paired, two-tailed Student's […]. […] Representative data are shown with DAPI labeled nuclei and PLA interactions. Summary data are obtained from multiple experiments each with multiple fields of view containing 20-30 nuclei. The scale bar is 10 μm.
To knockdown Kir2.1 expression, RVCMs were transduced with lentiviral particles carrying cGFP and shRNA targeting KCNJ2-mRNA for the channel. Kir2.1 knockdown cells (Kir2.1kd-CMs) were identified by expression of cGFP. Cells were studied with control pipette solution, or with pipette solutions containing purified SUMO1 (1 μM) or SENP1 (2 μM). Where indicated, the control pipette solution contained diC8 PIP2. Paired patch-clamp data were analyzed by Students t-test; ***, P<0.01. […] Kir2.1kd-CMs are identified by expression of GFP (inset, scale bar=10 μm). […] The arrow indicates the change in current-magnitude between exposure to ambient O2 and 2% O2 in the same cell. Right, Concentration-response curve showing that including diC8-PIP2 in the pipette opposes hypoxic-inhibition of IK1 in control RVCMs and RVCMs expressing the scrambled shRNA. The hypoxic-response is diminished in Kir2.1kd-CMs. Data are mean±s.d. for 7-8 cells per condition. […] Current inhibition is diminished when SENP1 is included in the recording pipette and is not observed when SUMO-insensitive Kir2.1-K49Q channels are studied. Data are mean±s.d. for 6 cells per condition.
Hypoxic-inhibition of Kir2.1 in cardiomyocytes via SUMOylation. We studied the effects of acute hypoxia on IK1 in rat ventricular cardiomyocytes (RVCMs) by whole cell patch-clamp recording. […] Both the hypoxia-sensitive and insensitive components of the current were blocked by Ba^2+ (3 mM), consistent with the known role of Kir2 channels in mediating IK1 (FIG. 1a). To determine if SUMOylation mediates the hypoxic inhibition of IK1 we introduced purified SENP1 (2 μM) to the cytosol via the recording pipette. […] Both the SUMO1 and hypoxia-mediated inhibition of IK1 remained stable throughout the remainder of the experiment (up to 10 mins). […] Next, we visualized and quantified the interactions between native Kir2.1 and SUMO1 in RVCMs using the proximity-ligation association (PLA) assay with antibodies we validated in heterologous cells by Western blot. […] The validated Kir2 antibodies were paired with SUMO1 antibodies that we have tested and utilized before. Under control conditions, interactions were observed between Kir2.1 and SUMO1, but not between Kir2.2 or Kir2.3 and SUMO1. […] Although cardiomyocytes are typically cultured at 21% O2, the O2-level in the myocardium is estimated to be in the range of 5-10% O2, under physiological conditions.
Hypoxic-inhibition of IK1/Kir2.1 is reduced by diC8-PIP2 in a concentration-dependent manner. We have shown that adding the exogenous, soluble PIP2 analog diC8-PIP2 into the patch-pipette opposes hypoxic-inhibition of IK1 (FIG. 4). […] As before, the effects of hypoxia were ameliorated by SENP1 (2 μM) and were not observed in the SUMO and hypoxia insensitive Kir2.1-K49Q channels (FIG. 4D).

| decrease in IK1 (SUMO1 1 μM in recording pipette) | increase in IK1 (purified SENP1 2 μM via recording pipette, mean±S.D.) | Molecule | effect on hypoxic inhibition of IK1 |
| --- | --- | --- | --- |
| – | – | Cc1sc(C(=O)c2cncnc2N[C@@H]2C[C@H](COS(N)(=O)=O)[C@@H](O)C2)cc1[C@@H]1NCCc2ccc(Cl)cc21 [TAK981, Subasumstat] | precludes hypoxic inhibition of Kir2 currents |
| 48±8% | – | SUMO1: purified SUMO1 (small ubiquitin-related modifier) protein introduced via the recording pipette or co-expressed | hypoxia-sensitive component of the current was abolished |
| – | 17.6±6.5% | SENP1: purified deSUMOylating enzyme (SUMO specific protease) introduced via the recording pipette or expressed (protein, UniProt Q9P0U3 1-644, looked up) Sentrin-specific protease 1: MDDIADRMRMDAGEVTLVNHNSVFKTHLLPQTGFPEDQLSLSDQQILSSRQGHLDRSFTCSTRSAAYNPSYYSDNPSSDSFLGSGDLRTFGQSANGQWRNSTPSSSSSLQKSRNSRSLYLETRKTSSGLSNSFAGKSNHHCHVSAYEKSFPIKPVPSPSWSGSCRRSLLSPKKTQRRHVSTAEETVQEEEREIYRQLLQMVTGKQFTIAKPTTHFPLHLSRCLSSSKNTLKDSLFKNGNSCASQIIGSDTSSSGSASILTNQEQLSHSVYSLSSYTPDVAFGSKDSGTLHHPHHHHSVPHQPDNLAASNTQSEGSDSVILLKVKDSQTPTPSSTFFQAELWIKELTSVYDSRARERLRQIEEQKALALQLQNQRLQEREHSVHDSVELHLRVPLEKEIPVTVVQETQKKGHKLTDSEDEFPEITEEMEKEIKNVFRNGNQDEVLSEAFRLTITRKDIQTLNHLNWLNDEIINFYMNMLMERSKEKGLPSVHAFNTFFFTKLKTAGYQAVKRWTKKVDVFSVDILLVPIHLGVHWCLAVVDFRKKNITYYDSMGGINNEACRILLQYLKQESIDKKRKEFDTNGWQLFSKKSQEIPQQMNGSDCGMFACKYADCITKDRPINFTQQHMPYFRKRMVWEILHRKLL | insensitive to hypoxia |
